Measurements: patent publication US20210333284A1, “METHODS AND MATERIALS FOR LARGE-SCALE ASSESSMENT OF LIGAND BINDING SELECTIVITY OF G-QUADRUPLEX RECOGNITION USING CUSTOM G4 MICROARRAYS” (Purdue Research Foundation, priority 2020, published 2021)

Test system: MYC Pu22 G4 variants
Test: G4 microarray direct binding to loop length, loop sequence and tail variants
Design: species or system human
Text: Three Agilent DNA microarrays (TABLE 1) were designed, each with four identical sectors that contain ca.177,440 ssDNA 60-mers to examine G4-binding specificity. Arrays were designed with 9-73 replicates of each unique sequence to ensure statistical significance (TABLE 1). Each microarray contains different sets of G4 variants designed to examine several sequence parameters that affect G4 formation and binding specificity such as loop length (Design 1), loop sequence (Design 2), tail sequence (Design 2), and single nucleotide variants of six known G4s (Design 3). […]
The effect of specific sequence parameters on molecule binding was examined. […] Distinct patterns within the best-bound sequences were identified, including flexibility for the nucleotides in the central loop of the G4 and an overall preference for thymines in loops (FIG. 3F), consistent with previous findings that T nucleotides in loops have a greater propensity for folding into G4s than other nucleotides.^39 Different tail sequence ([…] (SEQ ID NO: 3)) preferences were found for all measured molecules (FIG. 3G), further underscoring the utility of the platform in identifying sequence features important for G4 binding and highlighting tail sequences in determining binding specificity. […]

correlation (R) of loop length of the MYC Pu22 G4 vs binding intensity (loop length variants) | Molecule | tail (flanking) sequence preference in direct binding (NNGGGTGGGGAGGGTGGGNN variants, no competitor)
strongest effect | FANCJ: GST-tagged human BRCA1-binding helicase-like protein / Fanconi anemia group J protein (protein, listed as Homo sapiens, GST tag) MSSMWSEYTIGGVKIYFPYKAYPSQLAMMNSILRGLNSKQHCLLESPTGSGKSLALLCSALAWQQSLSGKPADEGVSEKAEVQLSCCCACHSKDFTNNDMNQGTSRHFNYPSTPPSERNGTSSTCQDSPEKTTLAAKLSAKKQASIYRDENDDFQVEKKRIRPLETTQQIRKRHCFGTEVHNLDAKVDSGKTVKLNSPLEKINSFSPQKPPGHCSRCCCSTKQGNSQESSNTIKKDHTGKSKIPKIYFGTRTHKQIAQITRELRRTAYSGVPMTILSSRDHTCVHPEVVGNFNRNEKCMELLDGKNGKSCYFYHGVHKISDQHTLQTFQGMCKAWDIEELVSLGKKLKACPYYTARELIQDADIIFCPYNYLLDAQIRESMDLNLKEQVVILDEAHNIEDCARESASYSVTEVQLRFARDELDSMVNNNIRKKDHEPLRAVCCSLINWLEANAEYLVERDYESACKIWSGNEMLLTLHKMGITTATFPILQGHFSAVLQKEEKISPIYGKEEAREVPVISASTQIMLKGLFMVLDYLFRQNSRFADDYKIAIQQTYSWTNQIDISDKNGLLVLPKNKKRSRQKTAVHVLNFWCLNPAVAFSDINGKVQTIVLTSGTLSPMKSFSSELGVTFTIQLEANHIIKNSQVWVGTIGSGPKGRNLCATFQNTETFEFQDEVGALLLSVCQTVSQGILCFLPSYKLLEKLKERWLSTGLWHNLELVKTVIVEPQGGEKTNFDELLQVYYDAIKYKGEKDGALLVAVCRGKVSEGLDFSDDNARAVITIGIPFPNVKDLQVELKRQYNDHHSKLRGLLPGRQWYEIQAYRALNQALGRCIRHRNDWGALILVDDRFRNNPSRYISGLSKWVRQQIQHHSTFESALESLAEFSKKHQKVLNVSIKDRTNIQDNESTLEVTSLKYSTPPYLLEAASHLSPENFVEDEAKICVQELQCPKIITKNSPLPSSIISRKEKNDPVFLEEAGKAEKIVISRSTSPTFNKQTKRVSWSSFNSLGQYFTGKIPKATPELGSSENSASSPPRFKTEKMESKTVLPFTDKCESSNLTVNTSFGSCPQSETIISSLKIDATLTRKNHSEHPLCSEEALDPDIELSLVSEEDKQSTSNRDFETEAEDESIYFTPELYDPEDTDEEKNDLAETDRGNRLANNSDCILAKDLFEIRTIKEVDSAREVKAEDCIDTKLNGILHIEESKIDDIDGNVKTTWINELELGKTHEIEIKNFKPSPSKNKGMFPGFK | –
– | DHX36: GST-tagged human DHX36/G4R1/MLEL1 helicase (protein, listed as Homo sapiens, GST tag, GST-tagged human DHX36/G4R1/MLEL1 helicase) MSYDYHQNWGRDGGPRSSGGGYGGGPAGGHGGNRGSGGGGGGGGGGRGGRGRHPGHLKGREIGMWYAKKQGQKNKEAERQERAVVHMDERREEQIVQLLNSVQAKNDKESEAQISWFAPEDHGYGTEVSTKNTPCSENKLDIQEKKLINQEKKMFRIRNRSYIDRDSEYLLQENEPDGTLDQKLLEDLQKKKNDLRYIEMQHFREKLPSYGMQKELVNLIDNHQVTVISGETGCGKTTQVTQFILDNYIERGKGSACRIVCTQPRRISAISVAERVAAERAESCGSGNSTGYQIRLQSRLPRKQGSILYCTTGIILQWLQSDPYLSSVSHIVLDEIHERNLQSDVLMTVVKDLLNFRSDLKVILMSATLNAEKFSEYFGNCPMIHIPGFTFPVVEYLLEDVIEKIRYVPEQKEHRSQFKRGFMQGHVNRQEKEEKEAIYKERWPDYVRELRRRYSASTVDVIEMMEDDKVDLNLIVALIRYIVLEEEDGAILVFLPGWDNISTLHDLLMSQVMFKSDKFLIIPLHSLMPTVNQTQVFKRTPPGVRKIVIATNIAETSITIDDVVYVIDGGKIKETHFDTQNNISTMSAEWVSKANAKQRKGRAGRVQPGHCYHLYNGLRASLLDDYQLPEILRTPLEELCLQIKILRLGGIAYFLSRLMDPPSNEAVLLSIRHLMELNALDKQEELTPLGVHLARLPVEPHIGKMILFGALFCCLDPVLTIAASLSFKDPFVIPLGKEKIADARRKELAKDTRSDHLTVVNAFEGWEEARRRGFRYEKDYCWEYFLSSNTLQMLHNMKGQFAEHLLGAGFVSSRNPKDPESNINSDNEKIIKAVICAGLYPKVAKIRLNLGKKRKMVKVYTKTDGLVAVHPKSVNVEQTDFHYNWLIYHLKMRTSSIYLYDCTEVSPYCLLFFGGDISIQKDNDQETIAVDEWIVFQSPARIAHLVKELRKELDILLQEKIESPHPVDWNDTKSRDCAVLSAIIDLIKTQEKATPRNFPPRFQDGYYS | preferentially binds MYC22 G4 variants containing pyrimidines (C/T) at the 5′ end of the G4
